In data set [1] the target is T1, HLA-A*02:01 (Homo sapiens, UniProt P04439, D140Y/D185E/D98H/E176V/E277Q/G131W/G231S/I119V/I121R/I166T/I218V/L300P/L318F/N151K/N90K/P208A/P217A/Q86G/Q94H/R138H/R169H/T345S). Put plainly: Native gel shift assay (EMSA). Format: binding. Conditions: UV-irradiated HLA-A*02:01/KILGFVFJV, 1:1 molar ratio. As for the experimental part:
For native gel shift assays, purified MHC-I molecules refolded with photo-labeled peptides (pMHC-I) and TAPBPR proteins were loaded into polyacrylamide gels alone at 7 μM concentration and as mixtures. For the mixtures, 1:1 molar ratio of pMHC-I and TAPBPR samples at 7 μM each were prepared and incubated at room temperature (RT) for 1 hour. The samples were then UV-irradiated for another hour at 365 nm and were run at 90 V for 5.5 hours on a 12% polyacrylamide gel. Staining was performed using InstantBlue (Novus Biologicals).
Native gel shift assay. Purified MHC-I molecules refolded with photo-labeled peptides (pMHC-I) and TAPBPR proteins were loaded into polyacrylamide gels alone at 7 μM concentration and as mixtures. For the mixtures, a 1:1 molar ratio of pMHC-I and TAPBPR samples at 7 μM each was prepared and incubated at RT for 1 hour. The samples were then UV-irradiated for another hour at 365 nm and were run at 90 V for 5.5 hours on a 12% polyacrylamide gel. Staining was performed using InstantBlue (Novus Biologicals).
(In EMSA bound probe runs differently from free probe, usually more slowly.)

Data set [2] is described as follows: DSF thermal stability of chaperone proteins. Conditions: DSF of the recombinant chaperone protein.
Data set [3] deals with 96 different HLA allotypes on single antigen HLA class I beads. Kind of data set: SAB screen, all beads. Format: binding, human. Conditions: across HLA allotypes; FIG. 23e. As for the experimental part:
For the Single Antigen Bead Screen, 7 μM of TAPBPR in tetramers were mixed with 4 μL of the LABScreen single antigen HLA-I bead suspension (OneLambda, Inc., CA, USA) in a 96-well plate. The samples were incubated for 1 hour, 550 rpm at RT, washed four times in Wash Buffer (OneLambda, Inc., CA, USA) to remove excess of tetramers and re-suspended in 1×PBS buffer (pH 7.2). For the negative controls, beads were incubated with the Anti-HLA Class I antibody W6/32 (Abcam, ab22432) for 30 min, 550 rpm at RT and washed three times prior tetramer addition. To test the levels of peptide loaded MHC-I molecules on the beads, Applicants used the same W6/32 antibody and the secondary anti-mouse PE-conjugated antibody (Abcam, ab97024) for detection. The levels of TAPBPR bound to the beads were measured using the Luminex 100 Liquid Array Analyzer System and the results were analyzed in GraphPad Prism v7.
SABs screen. 7 μM of TAPBPR in tetramers were mixed with 4 μL of the LABScreen single antigen HLA-I bead suspension (OneLambda, Inc., CA, USA) in a 96-well plate. […] The levels of TAPBPR bound to the beads were measured using the Luminex 100 Liquid Array Analyzer System and the results were analyzed in GraphPad Prism v9.

For data set [4], the target named is HLA-B*37:01 (Homo sapiens, UniProt P01889, A329T/A93T/A95T/C349S/D138N/D201E/D98Y/E176V/E187T/E204Q/E69T/G107R/H137Y/K202T/L119I/N104T/N87E/Q94N/R106L/R155S/R180D/S101D/S121R/V306I/Y123S/Y140F/Y33H/Y91S). Kind of data set: SAB screen. Format: binding. Conditions: HLA-B*37:01 beads; FIG. 41.
In data set [5] the target is T2, HLA-A*02:06 (Homo sapiens, UniProt P04439, D140Y/D185E/D98H/E176V/E277Q/F33Y/G131W/G231S/I119V/I121R/I166T/I218V/L300P/L318F/N151K/N90K/P208A/P217A/Q86G/Q94H/R138H/R169H/T345S).
T2 construct: made in house
Kind of data set: Fluorescence polarization (FP) peptide exchange. The format is biochemical. As to conditions: pHLA-A*02:06. Background: Polarisation of emitted light reports the rotation of a fluorescent probe.

Data set [6] addresses HLA-A*01:01 (Homo sapiens, UniProt P04439, A114D/A174V/A182V/D101N/D185E/E176A/E190D/L180R/Q94H/R68K/S129P/T187R/V100A/V91M/W191G). Put plainly: Fluorescence polarization (FP) peptide exchange. Conditions: HLA-A*01:01, chaperone at 5 μM.
For data set [7], the target named is T1, HLA-A*02:01. Kind of data set: Fluorescence polarization (FP) peptide exchange. Conditions: HLA-A*02:01/KILGFVFβFV, […].
Data set [8] deals with T1, HLA-A*02:01. Kind of data set: SPR. Conditions: peptide-deficient (empty) HLA-A*02:01.
In data set [9] the target is HLA-B*08:01 (Homo sapiens, UniProt P01889, A93T/A95T/D138N/E176V/E187T/K202T/Q94N/R180D/S35A/V36M/Y33D/Y91F). Kind of data set: Fluorescence polarization (FP) peptide exchange. As to conditions: based on DSF or FP assays.

B1: moTAPBPR: recombinant luminal domain of mouse TAPBPR, XP_030111162.1 (protein)
chain: TDPPTAPTTAERQRQPTDIILDCFLVTEDRHRGAFASSGDRERALLVLKQVPVLDDGSLEGITDFQGSTETKQDSPVIFEASVDLVQIPQAEALLHADCSGKAVTCEISKYFLQARQEATFEKAHWFISNMQVSRGGPSVSMVMKTLRDAEVGAVRHPTLNLPLSAQGTVKTQVEFQVTSETQTLNHLLGSSVSLHCSFSMAPGLDLTGVEWRLQHKGSGQLVYSWKTGQGQAKRKGATLEPEELLRAGNASLTLPNLTLKDEGNYICQISTSLYQAQQIMPLNILAPPKIQLHLANKDPLPSLVCSIAGYYPLDVGVTWIREELGGIPAQVSGASFSSLRQSTMGTYSISSTVMADPGPTGATYTCQVAHVSLEEPLTTSMRVLPNPEQRG
A word on the Tm: it is the temperature at which the thermal transition is half complete. As for B1, in [1], the TAPBPR/MHC-I complex formation entry is on record as “formed a new band”. Moreover, the Tm in data set [2] turned out to be 56 °C. The MFI ratios entry in data set [3] was “less than 5.8”.

B2: chTapasin: recombinant luminal domain of chicken Tapasin, a homolog of TAPBPR (protein)
chain: QFRVEDAASPPPPPAPVRCALLEGVGRGGGLPGGGNARPALLRFGGDAETPPEPGPEPEVTFNVSDPWGTLTPLGVPPRTPPSCELNPTNPQTGSDPWSRPLHPDARSPPTAGGQWWVAAVGTPQYGVTALLQGGMGTEGTITAAVALAVLTHTPTLRARVGSPIHLHCAFAAPPSSFVLEWRHQNRGAGRVLLAYDSSTARAPRAHPGAELLLGTRDGDGVTAVTLRLARPSPGDEGTYICSVFLPHGHTQTVLQLHVFEPPKVTLSPKNLVVAPGTSAELRCHVSGFYPLDVTVTWQRRAGGSGTSQSPRDTVMDSWTSGHRQAADGTYSRTAAARLIPARPQHHGDIYSCVVTHTALAKPMRVSVRLLLAGTEGPHLEDIT
Turning to B2, the Tm in data set [2] was 58 °C. Further, the “binding of Tapasin tetramers (MFI)” value in data set [4] is given as “tight binding”.

B3: hTAPBPR^KRQ: human TAPBPR mutant R105K, K211R, R270Q (protein)
chain: KPHPAEGQWRAVDVVLDCFLAKDGAHRGALASSEDRARASLVLKQVPVLDDGSLEDFTDFQGGTLAQDDPPIIFEASVDLVQIPQAEALLHADCSGKEVTCEISKYFLQMTETTVKTAAWFMANMQVSGGGPSISLVMKTPRVTKNEALWHPTLNLPLSPQGTVRTAVEFQVMTQTQSLSFLLGSSASLDCGFSMAPGLDLISVEWRLQHRGRGQLVYSWTAGQGQAVRKGATLEPAQLGMARDASLTLPGLTIQDEGTYICQITTSLYQAQQIIQLNIQASPKVRLSLANEALLPTLICDIAGYYPLDVVVTWTREELGGSPAQVSGASFSSLRQSVAGTYSISSSLTAEPGSAGATYTCQVTHISLEEPLGASTQVVPPERR
For orientation: Kd means the concentration at which binding is half-saturated. High values mean lower affinity, low ones higher affinity. Turning to B3, the “k2overall, fold improved compared to hTAPBPR” value in data set [5] is “approximately 9 fold”. Further, the “apparent rate constant kapp” value in data set [6] stood at 0.00013 s⁻¹. The “k2overall, fold higher than hTAPBPR” value in [7] is “approximately 60 fold”. Further, in [2], the Tm turned out to be 52.3 °C. Moreover, in data set [8], the Kd was determined as 243 nM. In addition, in [9], the Peptide exchange result is “failed to catalyze peptide exchange”.

Source of the values: patent publication US20250179143A1, “SYSTEMS AND METHODS FOR CHAPERONE-MEDIATED LIGAND EXCHANGE ON MHC-I AND MHC-RELATED MOLECULES USING CHICKEN TAPBPR” (priority 2022, published 2025).
